The values that follow come from patent publication US12258605B2, “Alkane oxidation by modified hydroxylases” (The California Institute of Technology, priority 2005, dated 2025).

Marks after values point to notes of the source that are not given here.

What all share (assay type): biochemical
Experiment [1] in a line: Methane to methanol conversion (alcohol oxidase/Purpald). The conditions noted are these: methane to methanol. On the procedure:
The 35-E11 variant was tested for the ability to convert methane to methanol using the method of Anthon and Barrett (Agric. Food Chem., 52:3749 (2004)). The method was optimized so that it could detect methanol concentrations in water as low as 10 μM.
The mutant BM-3 enzymes described below were purified using published procedures and used as catalysts in small reactions with methane. In glass head space vials containing magnetic stirring bars, BM-3 catalyst was added to 0.1 M potassium phosphate buffer (pH=8) saturated with methane. The vials were then crimped shut and charged to 20 psi with methane. To start the biotransformation, an NADPH regeneration system consisting of NADP+, isocitrate, and isocitric dehydrogenase was added through a syringe. The reaction was allowed to stir 12-15 hours. Methanol production was measured using a coupled enzyme assay. Aliquots of the reaction were transferred to 96-well microtitre plates and reacted with the enzyme alcohol oxidase for 5 minutes at room temperature. Alcohol oxidase converts the methanol produced by the BM-3 variants into formaldehyde which can be detected with the dye Purpald. To detect formaldehyde and quench the alcohol oxidase reaction, a solution of Purpald in 2 M NaOH was added and allowed to react for one hour. The purple color that Purpald forms in the presence of formaldehyde was quantified one hour later by spectrophotometrically reading the well at 550 nm and comparing the absorbance against similarly-treated solutions of BM-3, NADPH regeneration system, and methane-free buffer spiked with known concentrations of methanol. The results of these biotransformations are reported in Table 3 and sample spectra from the colorimetric assay are shown in FIG. 7.
Reactions for enzyme-catalyzed conversion of methane to methanol were carried out in 10 mL glass headspace vials. A 470 μL reaction mixture containing 5 μM purified BM-3 variant in 0.1 M potassium phosphate buffer (pH 8.0) was first added to the vial. The vial was immediately topped with a septum, pressurized with 30 psi of methane and shaken at 4° C. for 1 hour. […] For determination of total turnover, the reaction was allowed to proceed for 20 hours at room temperature.
The amount of methanol product formed during the 20 hr methane reaction was quantified colorimetrically with the use of alcohol oxidase and Purpald. 190 μL of the reaction mixture is transferred onto a single cell of a 96 well plate. 10 μL of 0.05 U/μL solution of alcohol oxidase (from Pichia pastoris, purchased from Sigma-Aldrich) was added to cell and allowed to incubate at room temperature for 5 minutes. During this time, the alcohol oxidase converts the methanol into formaldehyde. Purpald (168 mM in 2 M NAOH) was then added to form a purple product with the formaldehyde in solution. The purple color was read approximately 1 hour later at 550 nm using a Spectramax Plus microtiter plate reader. The concentration of methanol was determined based on the measure absorbance in comparison to a methanol calibration curve. The methanol calibration curve was generated with several standards. Each standard contained 100 μL of a methanol solution (10, 20, 40, 60, 100 μM) and 90 μL of the methane reaction mixture described above, without the methane pressurization.
The relative dimethyl ether (DME) activity was measured, 1 hour after treatment with Purpald, as the average net and absorbance at 550 nm from 8 microtitre plate DME reactions of the mutant compared to 8 equivalent reactions of 35-E11. All values were normalized by measuring the P450 concentration in each well with CO binding. “Asteriks” indicate criteria used to select mutants from libraries for further characterization. The oxidation rate is measured as absorbance change at 340 nm over 1 minute upon the addition of NADPH to 8 microtitre plate wells containing P450-containing cell lysate and compared to 8 equivalent reactions of 35-E11. […]

Experiment [2] is described as follows: High-throughput dimethyl ether (DME) screen. Conditions: relative to 35-E11; normalized to P450 concentration. On the procedure: Cell lysates for high throughput screening were prepared as described previously (Peters et al., J. Am. Chem. Soc. 125:13442 (2003); incorporated by reference herein). High-throughput dimethyl ether (DME) screens were performed in 96 well plates as described previously. Improved mutants were selected based on an increased signal compared to 9-10A (for the saturation mutagenesis libraries) and 1-12G (for the recombination library). Reactions on octane and propane were analyzed by gas chromatography as described.
(§1) Libraries of mutants of 35-E11 were screened for phenotypes indicative of either increased product formation on small gaseous substrates slightly larger than methane. Additionally, they were screened for increased coupling of the consumption of NADPH reducing equivalents to product formation. Product formation was determined by measuring total amount of dimethyl ether hydroxylation while increased coupling was determined primarily by decreased background NADPH consumption rates (measured spectrophotometrically at 340 nm in the absence of substrate).
The relative dimethyl ether (DME) activity was measured, 1 hour after treatment with Purpald, as the average net and absorbance at 550 nm from 8 microtitre plate DME reactions of the mutant compared to 8 equivalent reactions of 35-E11. All values were normalized by measuring the P450 concentration in each well with CO binding. “Asteriks” indicate criteria used to select mutants from libraries for further characterization. The oxidation rate is measured as absorbance change at 340 nm over 1 minute upon the addition of NADPH to 8 microtitre plate wells containing P450-containing cell lysate and compared to 8 equivalent reactions of 35-E11. All values were normalized by measuring the P450 concentration in each well with CO binding. The total turnover number (TTN) was measured as the absorbance at 550 nm of methane reactions with each mutant after treatment with alcohol oxidase and
Screening libraries by spectroscopically monitoring NADPH consumption rates in the presence of the alkane often selects for mutants with NADPH oxidation rates highly uncoupled to product formation. This can be overcome through the use of surrogate substrates that mimic desired substrates, yet yield species when hydroxylated that are easily detected either directly or with the addition of a dye. For example, the screen for the high-throughput identification of mutant BM-3 enzymes with activity towards propane as described previously uses dimethyl ether (DME) as a propane surrogate substrate. Upon hydroxylation, it decomposes into methanol and dye-sensitive formaldehyde. In addition, hexyl methyl ether (HME) may be used as a surrogate for octane. It shares most of the physical properties of octane, including solubility in buffer, size, shape, and strength of its C—H bonds. When HME is hydroxylated at its methoxy carbon, it also produces an equivalent of formaldehyde which is visually detected at concentrations as low as 10 μM with the dye Purpald (see FIG. 25). Hexanal, the aldehyde product formed when the α-carbon of the hexyl group is hydroxylated, is practically unreactive towards Purpald at some concentrations used in the present screens. Formaldehyde is approximately 42 times more sensitive to Purpald than hexanal (see FIG. 26). This disproportionate response makes HME, in contrast to the symmetric ether DME, a regio-selective screen for terminal alkane hydroxylation.
High-throughput screening. Single colonies were picked and inoculated by a Qpix robot (Genetix, Beaverton, OR) into 1-mL, deep-well plates containing LB (Amp*) medium (400 μL). The plates were incubated at 30° C., 250 rpm, and 80% relative humidity. After 24 h, 50 μL from this pre-culture were used to inoculate a 2-mL, deep-well plates containing […] TB (Amp^+) medium per well. Cultures were grown at 37° C., 220 rpm, and 80% relative humidity. […]

The nature of experiment [3]: Background NADPH oxidation rate in screen (cell lysate, no substrate). The conditions noted are these: relative to 35-E11. On the procedure: as §1
The relative dimethyl ether (DME) activity was measured, 1 hour after treatment with Purpald, as the average net and absorbance at 550 nm from 8 microtitre plate DME reactions of the mutant compared to 8 equivalent reactions of 35-E11. All values were normalized by measuring the P450 concentration in each well with CO binding. “Asteriks” indicate criteria used to select mutants from libraries for further characterization. The oxidation rate is measured as absorbance change at 340 nm over 1 minute upon the addition of NADPH to 8 microtitre plate wells containing P450-containing cell lysate and compared to 8 equivalent reactions of 35-E11. All values were normalized by measuring the P450 concentration in each well with CO binding. The total turnover number (TTN) was measured as the absorbance at 550 nm of methane reactions with each mutant after treatment with alcohol oxidase and […]

B1: 35-E11-E464R: P450 BM-3 variant, SEQ ID NO:8; 35-E11 with E464R (protein)
chain: TIKEMPQPKTFGELKNLPLLNTDKPVQALMKIADELGEIFKFEAPGCVTRYLSSQRLIKEACDESRFDKNLSQALKFFRDFSGDGLFTSWTHEINWKKAHNILLPSFSQQAMKGYHAMMVDIAVQLVQKWERLNADEHIEVSEDMTRLTLDTIGLCGFNYRFNSFYRDQPHPFIISMVRALDEVMNKLQRANPDDPAYDENKRQCQEDIKVMNDLVDKIIADRKARGEQSDDLLTQMLNGKDPETGEPLDDGNISYQIITFLIAGHETTSGLLSFALYFLVKNPHVLQKVVEEAARVLVDPVPSYKQVKQLKYVGMVLNEALRLWPTFPAFSLYAKEDTVLGGEYPLEKGDEVMVLIPQLHRDKTIWGDDVEEFRPERFENPSAIPQHAFKPFGNGQRACIGQQFALHEATLVLGMMLKHFDFEDHTNYELDIKETLTLKPEGFVVKAKSKKIPLGGIPSPSTRQSAKKVRKKAENAHNTPLLVLYGSNMGTAEGTARDLADIAMSKGFAPQVATLDSHAGNLPREGAVLIVTASYNGHPPDNAKQFVDWLDQASADEVKGVRYSVFGCGDKNWATTYQKVPAFIDETLAAKGAENIADRGEADASDDFEGTYEEWREHMWSDVAAYFNLDIENSEDNKSTLSLQFVDSAADMPLAKMHGAFSTNVVASKELQQPGSARSTRHLEIELPKEASYQEGDHLGVIPRNYEGTVNRVTARFGLDASQQIRLEAEEEKLAHLPLAKTVSVEELLQYVELQDPVTRTQLRAMAAKTVCPPHKVELEALLEKQAYKEQVLAKRLTMLELLEKYPACEMKFSEFIALLPSIRPRYYSISSSPRVDEKQASITVSVVSGEAWSGYGEYKGIASNYLAELQEGDTITCFISTPQSEFTLPKDPETPLIMVGPGTGVAPFRGFVQARKQLKEQGQSLGEAHLYFGCRSPHEDYLYQEELENAQSEGIITLHTAFSRMPNQPKTYVQHVMEQDGKKLIELLDQGAHFYICGDGSQMAPAVEATLMKSYADVHQVSEADARLWLQQLEEKGRYAKDVWAG
modifications: mutant P450 35-E11-E464R protein sequence
notes: 35-E11 with E464R
Consider B1, for which, in experiment [1], the “Methane TTN” value is given as 12. Also, the “Relative DME activity in screen” value in experiment [2] stood at 0.9. In addition, the “Relative background NADPH oxidation rate” value in experiment [3] was 0.6*.

B2: 35-E11-E464Y: P450 BM-3 variant, SEQ ID NO:9; 35-E11 with E464Y (protein)
chain: TIKEMPQPKTFGELKNLPLLNTDKPVQALMKIADELGEIFKFEAPGCVTRYLSSQRLIKEACDESRFDKNLSQALKFFRDFSGDGLFTSWTHEINWKKAHNILLPSFSQQAMKGYHAMMVDIAVQLVQKWERLNADEHIEVSEDMTRLTLDTIGLCGFNYRFNSFYRDQPHPFIISMVRALDEVMNKLQRANPDDPAYDENKRQCQEDIKVMNDLVDKIIADRKARGEQSDDLLTQMLNGKDPETGEPLDDGNISYQIITFLIAGHETTSGLLSFALYFLVKNPHVLQKVVEEAARVLVDPVPSYKQVKQLKYVGMVLNEALRLWPTFPAFSLYAKEDTVLGGEYPLEKGDEVMVLIPQLHRDKTIWGDDVEEFRPERFENPSAIPQHAFKPFGNGQRACIGQQFALHEATLVLGMMLKHFDFEDHTNYELDIKETLTLKPEGFVVKAKSKKIPLGGIPSPSTYQSAKKVRKKAENAHNTPLLVLYGSNMGTAEGTARDLADIAMSKGFAPQVATLDSHAGNLPREGAVLIVTASYNGHPPDNAKQFVDWLDQASADEVKGVRYSVFGCGDKNWATTYQKVPAFIDETLAAKGAENIADRGEADASDDFEGTYEEWREHMWSDVAAYFNLDIENSEDNKSTLSLQFVDSAADMPLAKMHGAFSTNVVASKELQQPGSARSTRHLEIELPKEASYQEGDHLGVIPRNYEGTVNRVTARFGLDASQQIRLEAEEEKLAHLPLAKTVSVEELLQYVELQDPVTRTQLRAMAAKTVCPPHKVELEALLEKQAYKEQVLAKRLTMLELLEKYPACEMKFSEFIALLPSIRPRYYSISSSPRVDEKQASITVSVVSGEAWSGYGEYKGIASNYLAELQEGDTITCFISTPQSEFTLPKDPETPLIMVGPGTGVAPFRGFVQARKQLKEQGQSLGEAHLYFGCRSPHEDYLYQEELENAQSEGIITLHTAFSRMPNQPKTYVQHVMEQDGKKLIELLDQGAHFYICGDGSQMAPAVEATLMKSYADVHQVSEADARLWLQQLEEKGRYAKDVWAG
modifications: mutant P450 35-E11-E464Y protein sequence
notes: 35-E11 with E464Y
Take B2: the “Methane TTN” value in experiment [1] stood at 13. Moreover, the “Relative DME activity in screen” value in experiment [2] was determined as 0.8. Moreover, in experiment [3], the “Relative background NADPH oxidation rate” value is recorded as 0.7*.
